The term Kd denotes the equilibrium constant for the complex coming apart.

This assay concerns the target T1, CD6 (as used in surface plasmon resonance) (human, UniProt P30203 18-402, limits assumed).
T1 construct: also called human CD6
T1 sequence (looked up): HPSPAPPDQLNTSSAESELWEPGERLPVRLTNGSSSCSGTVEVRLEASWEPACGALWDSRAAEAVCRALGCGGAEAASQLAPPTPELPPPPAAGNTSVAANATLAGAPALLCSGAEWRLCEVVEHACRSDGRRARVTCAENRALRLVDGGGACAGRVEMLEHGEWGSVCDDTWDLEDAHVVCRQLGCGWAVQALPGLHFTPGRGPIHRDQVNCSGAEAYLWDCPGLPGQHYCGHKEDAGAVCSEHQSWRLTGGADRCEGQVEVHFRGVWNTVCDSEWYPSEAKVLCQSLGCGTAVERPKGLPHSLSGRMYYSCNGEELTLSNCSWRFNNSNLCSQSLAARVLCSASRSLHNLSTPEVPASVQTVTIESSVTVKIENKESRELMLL
Briefly: surface plasmon resonance.

B1: mouse anti-human CD6 IgG (UMCD6) (antibody, V domains shown)
VH: QVQLKESGPGLVAPSQSLSITCTVSGFSLSRYSVHWVRQPPGKGLEWLGLIWGGGFTDYNSALKSRLSITKDNSKSQVFLKMNSLQTDDTAMYYCAREGVAYWGQGTLVSVSA
VL: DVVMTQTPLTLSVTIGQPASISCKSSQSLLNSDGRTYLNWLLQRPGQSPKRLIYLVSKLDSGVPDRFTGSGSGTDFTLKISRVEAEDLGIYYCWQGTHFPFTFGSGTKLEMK
notes: Mouse IgG; also called parent anti-CD6 mAb; parental mouse anti-CD6 IgG
In the case of B1, the Kd is 0.01 nM.

The values are drawn from patent publication US20240000960A1 (CLEVELAND CLINIC FOUNDATION, published 2024).
